Measured values from paper PMC8278322 (Cancer research, 2020).

Molecular target: T1, Gal4-fused SMAD4 (UniProt Q13485 1-552)
T1 sequence (looked up): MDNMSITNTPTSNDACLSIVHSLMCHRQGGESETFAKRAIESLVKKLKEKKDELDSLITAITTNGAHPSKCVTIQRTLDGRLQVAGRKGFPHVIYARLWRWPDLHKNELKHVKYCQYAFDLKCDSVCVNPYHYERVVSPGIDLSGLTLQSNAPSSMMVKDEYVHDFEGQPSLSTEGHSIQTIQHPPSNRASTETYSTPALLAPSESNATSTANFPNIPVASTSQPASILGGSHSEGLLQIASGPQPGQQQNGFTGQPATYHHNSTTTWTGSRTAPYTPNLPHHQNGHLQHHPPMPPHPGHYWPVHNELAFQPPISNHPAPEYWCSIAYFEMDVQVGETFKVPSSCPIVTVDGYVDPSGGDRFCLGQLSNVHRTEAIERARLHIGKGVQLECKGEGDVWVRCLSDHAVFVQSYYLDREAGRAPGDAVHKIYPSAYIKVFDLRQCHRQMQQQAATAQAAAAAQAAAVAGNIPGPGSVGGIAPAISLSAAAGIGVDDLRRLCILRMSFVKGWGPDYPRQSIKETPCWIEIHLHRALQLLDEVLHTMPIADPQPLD
Test: two-hybrid

fold luciferase activity against pVP16-fused wildtype FOXL2: ~20 fold
B1: pVP16-fused FOXL2^C134W (natural protein, human, UniProt P58012 1-376, looked up)
chain: MMASYPEPEDAAGALLAPETGRTVKEPEGPPPSPGKGGGGGGGTAPEKPDPAQKPPYSYVALIAMAIRESAEKRLTLSGIYQYIIAKFPFYEKNKKGWQNSIRHNLSLNECFIKVPREGGGERKGNYWTLDPAWEDMFEKGNYRRRRRMKRPFRPPPAHFQPGKGLFGAGGAAGGCGVAGAGADGYGYLAPPKYLQSGFLNNSWPLPQPPSPMPYASCQMAAAAAAAAAAAAAAGPGSPGAAAVVKGLAGPAASYGPYTRVQSMALPPGVVNSYNGLGGPPAAPPPPPHPHPHPHAHHLHAAAAPPPAPPHHGAAAPPPGQLSPASPATAAPPAPAPTSAPGLQFACARQPELAMMHCSYWDHDSKTGALHSRLDL
